B1: MMP2 (protein)
chain: YNFFPRKPKWDKNQITYRIIGYTPDLDPETVDDAFARAFQVWSDVTPLRFSRIHDGEADIMINFGRWEHGDGYPFDGKDGLLAHAFAPGTGVGGDSHFDDDELWTLGEGQVVRVKYGNADGEYCKFPFLFNGKEYNSCTDTGRSDGFLWCSTTYNFEKDGKYGFCPHEALFTMGGNAEGQPCKFPFRFQGTSYDSCTTEGRTDGYRWCGTTEDYDRDKKYGFCPETAMSTVGGNSEGAPCVFPFTFLGNKYESCTSAGRSDGKMWCATTANYDDDRKWGFCPDQGYSLFLVAAHEFGHAMGLEHSQDPGALMAPIYTYTKNFRLSQDDIKGIQELYGASPDIDLGTGPTPTLGPVTPEICKQDIVFDGIAQIRGEIFFFKDRFIWRTVTPRDKPMGPLLVATFWPELPEKIDAVYEAPQEEKAVFFAGNEYWIYSASTLERGYPKPLTSLGLPPDVQRVDAAFNWSKNKKTYIFAGDKFWRYNEVKKKMDPGFPKLIADAWNAIPDNLDAVVDLQGGGHSYFFKGAYYLKLENQSLKSVKFGSIKSDWLGC
B2: membrane type serine protease 1 (MT-SP1) (protein)
chain: VVGGTDADEGEWPWQVSLHALGQGHICGASLISPNWLVSAAHCYIDDRGFRYSDPTQWTAFLGLHDQSQRSAPGVQERRLKRIISHPFFNDFTFDYDIALLELEKPAEYSSMVRPICLPDASHVFPAGKAIWVTGWGHTQYGGTGALILQKGEIRVINQTTCENLLPQQITPRMMCVGFLSGGVDSCQGDSGGPLSSVEADGRIFQAGVVSWGDGCAQRNKPGVYTRLPLFRDWIKENTGV

What was measured:
[1] = target: (MCA)-His-Gln-Ser-Arg-Pro-Trp-Gly-Leu-Gly-Ser-Lys (DNP)-D-Arg (SEQ ID NO: 660)
[2] = target: (MCA)-His-Gln-Ser-Arg-Ser-Ala-Ile-Ala-Leu-Gly-Ser-Lys (DNP)-D-Arg (SEQ ID NO: 655)
[3] = target: (MCA)-His-Gln-Ser-Arg-Ser-Ala-Ile-Ala-Leu-X1-Gly-Lys (DNP)-D-Arg (SEQ ID NO: 654) where X1 is Y
[4] = target: (MCA)-His-Gln-Ser-Arg-Ser-Ala-Ile-Ala-Leu-X1-X2-Lys (DNP)-D-Arg (SEQ ID NO: 653) where X1 is Y and X2 is A
[5] = target: (MCA)-His-Gln-Ser-Arg-Ser-Gly-Pro-Trp-Gly-Leu-X1-Lys (DNP)-D-Arg (SEQ ID NO: 659) where X1 is absent
[6] = target: (MCA)-His-Gln-Ser-Arg-Ser-Pro-Trp-Gly-Gly-Ser-Lys (DNP)-D-Arg (SEQ ID NO: 661)
[7] = target: (MCA)-His-Gln-Ser-Arg-Ser-Pro-Trp-Gly-Leu-Gly-Lys (DNP)-D-Arg (SEQ ID NO: 665)
[8] = target: (MCA)-Ser-Pro-Trp-Gly-Leu-His-Gln-Ser-Arg-Gly-Lys (DNP)-D-Arg (SEQ ID NO: 663)
[9] = target: (MCA)-Ser-Pro-Trp-Gly-Leu-His-Gln-Ser-Arg-Ser-Lys (DNP)-D-Arg (SEQ ID NO: 657)
[10] = target: (MCA)-Ser-Pro-Trp-Gly-Leu-His-Gln-Ser-Lys-Ser-Lys (DNP)-D-Arg (SEQ ID NO: 664)
[11] = target: D-Arg-Lys (DNP)-Ala-Ile-Ala-Leu-His-Gln-Ser-Arg-Ser-Lys (MCA)-D-Arg (SEQ ID NO: 658)
[12] = target: peptide probe with CM … (SEQ ID NO: 641)
[13] = target: peptide probe with CM … (SEQ ID NO: 642)
[14] = target: peptide probe with CM … (SEQ ID NO: 643)
[15] = target: peptide probe with CM … (SEQ ID NO: 644)
[16] = target: peptide probe with CM … (SEQ ID NO: 645)
[17] = target: peptide probe with CM … (SEQ ID NO: 646)
[18] = target: peptide probe with CM … (SEQ ID NO: 647)
[19] = target: peptide probe with CM … (SEQ ID NO: 639)
[20] = target: peptide probe with CM … (SEQ ID NO: 648)
[21] = target: peptide probe with CM … (SEQ ID NO: 649)
[22] = target: peptide probe with CM … (SEQ ID NO: 650)

Row | Protein | Probe Cleavage (pM/s) [1] | Probe Cleavage (pM/s) [2] | Probe Cleavage Kcat/KM [2] | Probe Cleavage (pM/s) [3] | Probe Cleavage Kcat/KM [3] | Probe Cleavage (pM/s) [4] | Probe Cleavage Kcat/KM [4] | Probe Cleavage (pM/s) [5] | Probe Cleavage (pM/s) [6] | Probe Cleavage (pM/s) [7] | Probe Cleavage (pM/s) [8] | Probe Cleavage (pM/s) [9] | Probe Cleavage Kcat/KM [9] | Probe Cleavage (pM/s) [10] | Probe Cleavage (pM/s) [11] | Probe Cleavage Kcat/KM [11] | Probe Cleavage (pM/s) [12] | Probe Cleavage (pM/s) [13] | Probe Cleavage (pM/s) [14] | Probe Cleavage (pM/s) [15] | also measured
1 | B1 | 4020 pM/s | 76.9 pM/s | 4900 M⁻¹ s⁻¹ | 434 pM/s | 67000 M⁻¹ s⁻¹ | 468 pM/s | 29000 M⁻¹ s⁻¹ | 94.8 pM/s | 61.6 pM/s | 44.2 pM/s | 6840 pM/s | 2550 pM/s | 54000 M⁻¹ s⁻¹ | 6640 pM/s | 4220 pM/s | 17000 M⁻¹ s⁻¹ | 726 pM/s | 692 pM/s | 623 pM/s | 696 pM/s | Probe Cleavage (pM/s) [16]: 594 pM/s; Probe Cleavage (pM/s) [17]: 1390 pM/s; Probe Cleavage (pM/s) [18]: 65.4 pM/s; Probe Cleavage (pM/s) [19]: 17600 pM/s; Probe Cleavage (pM/s) [20]: 488 pM/s; Probe Cleavage (pM/s) [21]: 61.1 pM/s; Probe Cleavage (pM/s) [22]: 410 pM/s
2 | B2 | 32 pM/s | Above limit of quantitation | 510000 M⁻¹ s⁻¹ | 1960 pM/s | 790000 M⁻¹ s⁻¹ | 1750 pM/s | 630000 M⁻¹ s⁻¹ | 9930 pM/s | 3470 pM/s | 1210 pM/s | 540 pM/s | 1280 pM/s | 28000 M⁻¹ s⁻¹ | 1630 pM/s | 11500 pM/s | 55000 M⁻¹ s⁻¹ | Above limit of quantitation | 1860 pM/s | 11300 pM/s | 8 pM/s | Probe Cleavage Kcat/KM [7]: 35000 M⁻¹ s⁻¹; Probe Cleavage (pM/s) [16]: 7330 pM/s; Probe Cleavage (pM/s) [17]: Above limit of quantitation; Probe Cleavage (pM/s) [18]: Above limit of quantitation; Probe Cleavage (pM/s) [19]: 10800 pM/s; Probe Cleavage (pM/s) [20]: 4120 pM/s; Probe Cleavage (pM/s) [21]: 7780 pM/s; Probe Cleavage (pM/s) [22]: 7920 pM/s

Reference: US12589164
